Changes are numbered by the printed parent chain.
T1: human TIGIT expressed on cells (TIGIT/Jurkat cells; MJ[G11] cells; PBMC T cells) (human, UniProt Q495A1 22-244)
T1 construct: The cell line is named under assay; also called human TIGIT-expressing Jurkat cells
T1 sequence: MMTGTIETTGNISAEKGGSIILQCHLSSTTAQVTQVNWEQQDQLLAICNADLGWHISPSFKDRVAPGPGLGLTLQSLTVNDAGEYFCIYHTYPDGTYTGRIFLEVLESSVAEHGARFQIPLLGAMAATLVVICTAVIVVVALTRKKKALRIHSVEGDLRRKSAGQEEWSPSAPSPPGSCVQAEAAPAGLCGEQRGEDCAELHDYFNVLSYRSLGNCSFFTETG

T2: recombinant human TIGIT IgV domain (human, UniProt Q495A1 22-141, limits assumed)
T2 construct: Made in NS0 or Expi293F cells, purified on Strep-Tactin XT; Biotinylated for phage panning; also called human TIGIT IgV protein; native (Nat) form human TIGIT protein
T2 chain: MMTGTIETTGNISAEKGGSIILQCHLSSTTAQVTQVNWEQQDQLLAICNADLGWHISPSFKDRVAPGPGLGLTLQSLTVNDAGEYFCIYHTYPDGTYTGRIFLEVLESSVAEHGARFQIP

B1: hz7D4 hIgG1 (antibody, V domains shown)
VH: EVQLVQSGGGLVKPGGSLRLSCAASGYTFTNYWIGWVRQTPGKGLEWVGDIYPGSSFTNSNEKFKGRFTISADKSKNTAYLQMNSLRAEDTAVYYCARLGRGYWYFDVWGQGTLVTVSS
VL: DIVLTQSPATLSASLGERATLSCSASSSVSYIHWYQQKPGQAPKLLIYTTSNLASGVPSRFSGSGSGTDFTLTISSLEAEDFATYYCHQWSRYPTFGGGTKLEIK
notes: Human IgG1 (vector pFUSE-CHIg-hIG1) with human kappa constant region, made in CHO-S cells; also called humanized 7D4; hz7D4 human IgG1
B2: 1A11 scFv phage clone (scFv, V domains shown)
VH: B1 VH
VL: B1 VL with H88Q, Q89L, W90F, S91R, R92S, Y93G, P94S, T95A

Key:
[1] = molecular target: T1, human TIGIT expressed on cells …; assay: flow cytometry competition on MJ[G11] cells; competitor DyLight 650-CD155-human Fc at 1.5 µg/ml
Excerpt: (§1) Anti-TIGIT antibodies, including hz7D4, and reference antibodies (15A6 and 1D3) were used to compete with CD155 for binding to cells expressing human TIGIT. MJ[G11] (American Type Culture Collection (ATCC), CRL-8294) is a CD3+CD4+T lymphoma cell line carrying human T cell leukemia virus (HTLV-I). MJ[G11] cells were characterized by immunostaining with regulatory T cell phenotypic antibody markers, including CD4, CD25, CD127, and FoxP3, and found to be a regulatory T cell-like cell line (FIG. 9A). Moreover, MJ[G11] cells express human TIGIT constitutively, as shown by immunostaining with PE-conjugated anti-human TIGIT, MBSA43 antibody (FIG. 9B). A sequential 3-fold dilution of anti-TIGIT antibodies was added to 5×10⁵ of human TIGIT-expressing Jurkat cells or 3×10⁵ of MJ[G11] cells in 50 μl FACS buffer (0.2% BSA in DPBS containing 0.09% sodium azide) and incubated on ice for 30 min. Then, 10 μl of DyLight 650-conjugated CD155-human Fc fusion protein were added to the cells, to reach a final concentration of 1 μg/ml for human TIGIT-Jurkat cells and 1.5 μg/ml for MJ[G11] cells, and incubated for 30 min at 4° C. Cells were washed and analyzed by a FACSCalibur cytometer (Becton Dickinson). IC₅₀ values were calculated based on normalized median fluorescence intensity (MFI) values. […]

[2] = molecular target: T1, human TIGIT expressed on cells …; assay: flow cytometry competition on TIGIT/Jurkat cells; competitor DyLight 650-CD155-human Fc at 1 µg/ml
Excerpt: as §1

[3] = molecular target: T2, recombinant human TIGIT IgV domain; assay: phage display panning on biotinylated human TIGIT IgV domain
Experimental: (§2) The phages were captured by incubation with 50 μl of M280 streptavidin magnetic beads (Thermo Fisher Scientific) for 15 min. Non-specific phages were eliminated by ten washes with PBS/0.1% Tween-20, followed by 10 washes with PBS for 5 min each. Bound phages were eluted with 0.1 M glycine (pH 2.0), neutralized with 1 M Tris-HCl (pH 8.0) and re-infected into log-phase TG1 cells. In the second panning round, phages (10⁹ cfu) were used against 0.1 nM of the biotinylated cyno TIGIT IgV domain.
(§3) The nucleotide sequences of the phage clones that bind to both human and cyno TIGIT IgV domains were determined. All heavy chain CDR3 (HCDR3) clones contain the wild type HCDR3 amino acid sequence of […] (SEQ ID NO: 3). Two light chain CDR3 (LCDR3) clones screened by the light chain library, designated 1A11 and 1E3, contain LCDR3 amino acid sequences of […] (SEQ ID NO: 23) and […] (SEQ ID NO: 24), respectively.

cyno TIGIT IgV domain = molecular target: T3, cyno TIGIT IgV domain (cynomolgus monkey); assay: phage display panning on biotinylated cyno TIGIT IgV domain
T3 construct: Biotinylated for phage panning; also called biotinylated cyno TIGIT IgV domain; cynomolgus monkey TIGIT
Experimental: as §2, §3

T3 sequence (chain, as listed by the source limits assumed): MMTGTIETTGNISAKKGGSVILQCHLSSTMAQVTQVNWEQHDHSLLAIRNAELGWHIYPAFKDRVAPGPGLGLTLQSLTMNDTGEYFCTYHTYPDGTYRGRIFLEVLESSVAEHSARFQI

Row | Binder | IC50 [1] [pM] | IC50 [2] [pM] | binding result [3] | binding result (cyno TIGIT IgV domain)
1 | B1 | 300 | 200 | – | –
2 | B2 | – | – | binds | binds

From patent US20230416362A1 (INDUSTRIAL TECHNOLOGY RESEARCH INSTITUTE, published 2023)
